± gives the standard error. For part of these data: This sample holds only a part of the variants without activity.
B1: glmS ribozyme (parent)
chain: AUAAAAGCGCCAGAACUACAGAAAUGUAGUUGACGAGGAGGAGGUUUAUCGAAUUUUCGGCGGAUGCCUCCAAA

Assays:
Conditions in all cases: with glucosamine-6-phosphate
[1] = variants of: B1; assay: kcat; higher = faster cleavage; RNA array
Procedure, shortened: (§1)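 Barcoded ribozyme variants, transcribed in situ by E. coli RNA polymerase on sequenced MiSeq chips, were followed via a hybridised Cy3 probe at 37 °C. Glucosamine-6-phosphate ranged from 40 μM to 10 mM in HEPES/KCl/Mg(OAc)2 buffer. kobs came from decay fits to per-tile medians, and kcat and KM from weighted Michaelis–Menten fits.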

[2] = variants of: B1; assay: self-cleavage kobs at 640 uM GlcN6P; higher = faster cleavage; RNA array
Procedure, shortened: as §1

[3] = variants of: B1; assay: self-cleavage kobs at 2500 uM GlcN6P; higher = faster cleavage; RNA array
Procedure, shortened: as §1

[4] = variants of: B1; assay: self-cleavage kobs at 10000 uM GlcN6P; higher = faster cleavage; RNA array
Procedure, shortened: as §1

[5] = variants of: B1; assay: self-cleavage kobs at 40 uM GlcN6P; higher = faster cleavage; RNA array
Procedure, shortened: as §1

[6] = variants of: B1; assay: self-cleavage kobs at 160 uM GlcN6P; higher = faster cleavage; RNA array
Procedure, shortened: as §1

[7] = variants of: B1; assay: KM; higher = weaker cofactor use; RNA array
Procedure, shortened: as §1

Variant | kcat [1] | self-cleavage kobs at 640 uM GlcN6P [2] | self-cleavage kobs at 2500 uM GlcN6P [3] | self-cleavage kobs at 10000 uM GlcN6P [4] | self-cleavage kobs at 40 uM GlcN6P [5] | self-cleavage kobs at 160 uM GlcN6P [6] | KM [7]
U57G C71U | 6.07e-05 ± 3e-05 s⁻¹ | 3.26e-05 ± 1.2e-05 s⁻¹ | 1.65e-05 ± 8e-06 s⁻¹ | 4.47e-05 ± 6.6e-06 s⁻¹ | – | – | –
U47G C61U | 2.06e-05 ± 4.9e-06 s⁻¹ | – | – | – | < 1e-05 s⁻¹ | – | –
C10G U49C | < 1e-05 s⁻¹ | – | < 1e-05 s⁻¹ | < 1e-05 s⁻¹ | < 1e-05 s⁻¹ | < 1e-05 s⁻¹ | –
A12C U31A | 0.0133 ± 0.004 s⁻¹ | 0.00151 ± 0.00035 s⁻¹ | 0.00434 ± 0.00085 s⁻¹ | 0.00974 ± 0.0017 s⁻¹ | 0.000142 ± 1.7e-05 s⁻¹ | 0.000363 ± 7.2e-05 s⁻¹ | 4520 ± 1700 µM
A15C G40C | 0.000353 ± 6.6e-05 s⁻¹ | 0.000109 ± 9.3e-06 s⁻¹ | 0.000234 ± 2.4e-05 s⁻¹ | 0.000343 ± 3.9e-05 s⁻¹ | – | 5.62e-05 ± 7.5e-06 s⁻¹ | 1230 ± 420 µM
A33C C58U | < 1e-05 s⁻¹ | – | – | < 1e-05 s⁻¹ | – | < 1e-05 s⁻¹ | –
A42U G43U C61A | 2.03e-05 ± 2.4e-06 s⁻¹ | – | – | – | – | – | –
C16G C71A | 0.000641 ± 0.00015 s⁻¹ | 0.000111 ± 1.9e-05 s⁻¹ | 0.000462 ± 0.00011 s⁻¹ | 0.000465 ± 8.7e-05 s⁻¹ | – | – | 2900 ± 1000 µM
C67U U69A | 4.62e-05 ± 6.3e-06 s⁻¹ | 5e-05 ± 1.8e-05 s⁻¹ | 4.79e-05 ± 1.1e-05 s⁻¹ | 3.56e-05 ± 1.5e-05 s⁻¹ | < 1e-05 s⁻¹ | – | –
U46C A48U | 8.27e-05 ± 1.4e-05 s⁻¹ | – | 6.44e-05 ± 1.3e-05 s⁻¹ | 6.9e-05 ± 9e-06 s⁻¹ | – | – | –
G66C C68U | 0.00021 ± 1.1e-05 s⁻¹ | 5.11e-05 ± 1e-05 s⁻¹ | 0.000132 ± 2.7e-05 s⁻¹ | 0.000173 ± 2.3e-05 s⁻¹ | – | – | 1890 ± 220 µM
A39G C70U C71U | 0.000401 ± 9.5e-05 s⁻¹ | 0.000383 ± 8.4e-05 s⁻¹ | 0.000283 ± 8.9e-05 s⁻¹ | 0.000785 ± 0.00024 s⁻¹ | 0.000107 ± 2.7e-05 s⁻¹ | 0.000403 ± 0.00018 s⁻¹ | –
C10G G32C | < 1e-05 s⁻¹ | < 1e-05 s⁻¹ | – | – | – | < 1e-05 s⁻¹ | –
A39G U54A | 0.0133 ± 0.0029 s⁻¹ | 0.00823 ± 0.0019 s⁻¹ | – | 0.018 ± 0.0076 s⁻¹ | 0.00173 ± 0.00037 s⁻¹ | – | 282 ± 100 µM
C16G U46G | 0.000671 ± 0.00023 s⁻¹ | 0.000167 ± 4e-05 s⁻¹ | 0.000703 ± 0.00022 s⁻¹ | 0.000514 ± 0.00016 s⁻¹ | – | 5.87e-05 ± 2.1e-05 s⁻¹ | –
A15C C67A | 0.000713 ± 0.00031 s⁻¹ | 0.000552 ± 0.0001 s⁻¹ | 0.000389 ± 0.00012 s⁻¹ | 0.000858 ± 0.00022 s⁻¹ | 5.14e-05 ± 1.2e-05 s⁻¹ | 0.000103 ± 1.7e-05 s⁻¹ | –

Variant | kcat [1] | self-cleavage kobs at 640 uM GlcN6P [2] | self-cleavage kobs at 2500 uM GlcN6P [3] | self-cleavage kobs at 10000 uM GlcN6P [4] | self-cleavage kobs at 40 uM GlcN6P [5] | self-cleavage kobs at 160 uM GlcN6P [6] | KM [7]
A14C A48U | 5.62e-05 ± 5.4e-06 s⁻¹ | – | – | 4.26e-05 ± 7.7e-06 s⁻¹ | – | – | 3170 ± 1200 µM
G40A U65G | 0.00247 ± 0.00015 s⁻¹ | 0.000421 ± 0.0001 s⁻¹ | 0.00107 ± 0.00028 s⁻¹ | 0.00192 ± 0.00028 s⁻¹ | 3.72e-05 ± 1.4e-05 s⁻¹ | – | 2990 ± 340 µM
A53U U57C | 0.000173 ± 5.9e-06 s⁻¹ | – | 0.000115 ± 2.1e-05 s⁻¹ | 0.000151 ± 1.8e-05 s⁻¹ | – | – | 1360 ± 210 µM
G38U U65A | < 1e-05 s⁻¹ | – | – | – | – | < 1e-05 s⁻¹ | –
G32A C70A | 7.22e-05 ± 1.4e-05 s⁻¹ | 8.06e-05 ± 1.2e-05 s⁻¹ | 8.73e-05 ± 8.9e-06 s⁻¹ | 5.13e-05 ± 8.6e-06 s⁻¹ | – | – | –
G37A C71A | 0.000462 ± 4.6e-05 s⁻¹ | 0.000114 ± 2.7e-05 s⁻¹ | 0.000331 ± 4.6e-05 s⁻¹ | 0.000391 ± 3.8e-05 s⁻¹ | – | 5.16e-05 ± 2e-05 s⁻¹ | 1520 ± 410 µM
A14G A64U | 0.000311 ± 2.2e-05 s⁻¹ | 7.9e-05 ± 1e-05 s⁻¹ | 0.000199 ± 2.7e-05 s⁻¹ | 0.000257 ± 2.3e-05 s⁻¹ | – | – | 1830 ± 300 µM
A39U C71U | 0.0168 ± 0.0026 s⁻¹ | 0.00657 ± 0.00085 s⁻¹ | 0.0105 ± 0.0014 s⁻¹ | 0.0183 ± 0.0026 s⁻¹ | 0.000702 ± 7.4e-05 s⁻¹ | 0.00196 ± 0.00029 s⁻¹ | 1030 ± 230 µM
A14C A53U | 0.00451 ± 0.00085 s⁻¹ | 0.000737 ± 0.00012 s⁻¹ | 0.00214 ± 0.00026 s⁻¹ | 0.0035 ± 0.00029 s⁻¹ | 7.8e-05 ± 7.6e-06 s⁻¹ | 0.000184 ± 2.7e-05 s⁻¹ | 2930 ± 790 µM
A12G C67U | 0.000655 ± 3.4e-05 s⁻¹ | 9.59e-05 ± 9.7e-06 s⁻¹ | 0.000297 ± 5.2e-05 s⁻¹ | 0.000475 ± 4.3e-05 s⁻¹ | – | – | 3650 ± 310 µM
U47G A48C | 0.000154 ± 1.4e-05 s⁻¹ | – | 9.31e-05 ± 3e-05 s⁻¹ | 0.000124 ± 1.9e-05 s⁻¹ | < 1e-05 s⁻¹ | – | 2250 ± 640 µM
A52G C70G | 6.89e-05 ± 3.6e-06 s⁻¹ | 5.76e-05 ± 1.2e-05 s⁻¹ | 6.23e-05 ± 7.9e-06 s⁻¹ | 7.2e-05 ± 6.7e-06 s⁻¹ | – | 5.53e-05 ± 1e-05 s⁻¹ | 65.2 ± 26 µM
A12U G38A | < 1e-05 s⁻¹ | – | – | – | – | – | –
C10G U49A | 1.12e-05 ± 2.4e-06 s⁻¹ | < 1e-05 s⁻¹ | – | – | < 1e-05 s⁻¹ | – | –
A15G A33U | 0.0001 ± 9.2e-06 s⁻¹ | – | 5.25e-05 ± 7e-06 s⁻¹ | 7.91e-05 ± 6.4e-06 s⁻¹ | < 1e-05 s⁻¹ | – | 2530 ± 740 µM
U56G C58U | 0.000147 ± 7.7e-06 s⁻¹ | – | 4.08e-05 ± 8.6e-06 s⁻¹ | 9.06e-05 ± 8e-06 s⁻¹ | – | – | 6310 ± 710 µM
